Assay results: article PMC11109380

Assays:
[1] = biological target: human CD3ε Y50E-FLAG expressed in JK εKO cells (human); assay: proximity ligation; in situ PLA (Duolink) with goat anti-CD3ε and mouse anti-LCK in JK εKO cells expressing hCD3ε variants; unstimulated or stimulated with 5 μg/ml anti-CD3ε (OKT3) for 5 min at 37°C; dots per cell normalised to the stimulated WT
[2] = biological target: human CD3ε cytoplasmic tail fused to GST, Y50E (human); assay: pull-down; GST-CD3ε cytoplasmic tail variants on glutathione sepharose beads, incubated with Jurkat T cell lysate (lysis buffer with 0.3% Brij96V, 20 mM Tris-HCl pH 8, 137 mM NaCl) overnight at 4°C; immunoblot, signals normalised to GST
[3] = biological target: human CD3ε cytoplasmic tail fused to GST, Y39/50E (human); assay: as above

reduction of TCR-LCK proximity compared to WT [1]: 60% | residual binding [1]: < 30% | reduction of binding compared to CD3ε WT [2]: 80% | reduction of binding compared to CD3ε WT [3]: 80%
Substance: Src family kinase LCK (from UniProt P06239 1-509) (enzyme)
